{"source": "patent US20250052767A1", "about": "(BIOLEGEND, published 2025)", "key": {"human CD28 [1]": {"molecular_target": "T1, human CD28 (human, UniProt P10747 19-220, On cells CD28 is a disulfide linked homodimer and a glycoprotein; one copy of the chain is given.)", "T1 sequence (P10747 19-220 limits assumed)": "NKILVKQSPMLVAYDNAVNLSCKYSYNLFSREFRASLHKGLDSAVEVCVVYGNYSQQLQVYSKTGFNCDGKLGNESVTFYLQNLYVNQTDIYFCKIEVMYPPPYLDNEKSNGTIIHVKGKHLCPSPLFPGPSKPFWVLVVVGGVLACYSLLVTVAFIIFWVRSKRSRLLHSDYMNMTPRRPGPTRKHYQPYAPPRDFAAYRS", "experiment": "cell-based or functional assay"}, "human CD28 [2]": {"molecular_target": "T1, human CD28", "experiment": "cell-based or functional assay", "remark": "listed apart in the source"}, "human CD28 [3]": {"molecular_target": "T1, human CD28", "experiment": "flow cytometry, PE-conjugated antibody on un-fixed human peripheral blood cells", "description": "(§1) Cells were left either un-fixed or were fixed with 4% PFA for 15 minutes and washed with PBS to remove PFA. Cells were then counted and adjusted in Cell Staining Buffer and stained with exemplary anti-CD28 antibodies conjugated to PE for 30 minutes in the dark. […] Data were acquired on a BD Canto II instrument, and analyzed by FlowJo."}, "human CD28 [4]": {"molecular_target": "T1, human CD28", "experiment": "flow cytometry, PE-conjugated antibody on 4% PFA-fixed human peripheral blood cells", "description": "as §1"}, "human CD28 [5]": {"molecular_target": "T1, human CD28", "experiment": "flow cytometry, PE-conjugated antibody on fresh human peripheral blood cells, CD3/CD28 gating", "excerpt": "Cells were lysed with RBC lysis buffer, washed, and resuspended in Fluorofix solution (containing 1% PFA). Data were acquired on a BD Canto II instrument, and analyzed by FlowJo. […] A histogram was generated of each cell population to quantify median fluorescence intensity (MFI), and the MFI of each exemplary antibody and respective control was used to calculate the signal to noise (S:N) ratio (Table E2)."}, "human CD28 [6]": {"molecular_target": "T1, human CD28", "experiment": "flow cytometry, Ba/F3-human CD28 cells pre-incubated with 70 ug antibody, then 1 ug biotinylated recombinant CD86 (competitor) + labelled streptavidin", "description": "After 15 minutes of incubation and wash, cells were incubated with PE-conjugated streptavidin. Data were acquired on a BD Canto II, and analyzed using FlowJo software.\nThis value was subtracted from 100 to get a reduction percentage."}}}
{"binder": "exemplary anti-CD28 antibody AB6 (antibody, V domains shown, Mouse hybridoma monoclonal antibody; Conjugated to PE in the staining assays; also called antibody 6; clone 6) VH: KVQLQQSGAGLVKPGASVKLSCKTSGYTFSDYIINWVKQRSGQGLEWIGWFYPGSGSINYNEKFKDKATLTADKSSSTVYMDLSRLTSEDSAVYFCARREDRGGYDAFDYWGQGTTLTVSS VL: DIQMTQSPASLSVSVGETVTITCRASENIYSNLAWYQQKQGKSPQLLVYAATKLADGVPSRFSGSGSGTQYSLRINSLQSEDFGSYYCQHFWGTPWTFGGGTKLEIK", "values": [{"measurement": "Division Index (with anti-CD3 UCHT1)", "setting": "human CD28 [1]", "value": 1.32}, {"measurement": "Expansion Index (with anti-CD3 UCHT1)", "setting": "human CD28 [1]", "value": 6.04}, {"measurement": "Percent Divided (CFSE T cell division, with plate-coated anti-CD3 UCHT1)", "setting": "human CD28 [1]", "value": 65.8, "unit": "%"}, {"measurement": "Division Index (no anti-CD3)", "setting": "human CD28 [2]", "value": 0.0047}, {"measurement": "Expansion Index (no anti-CD3)", "setting": "human CD28 [2]", "value": 1.01}, {"measurement": "Percent Divided (CFSE T cell division, no anti-CD3)", "setting": "human CD28 [2]", "value": 0.33, "unit": "%"}, {"measurement": "S/N on un-fixed cells", "setting": "human CD28 [3]", "value": 128}, {"measurement": "S/N on fixed cells", "setting": "human CD28 [4]", "value": 101}, {"measurement": "% CD28+ population", "setting": "human CD28 [5]", "value": 66, "unit": "%"}, {"measurement": "MFI CD28+ population", "setting": "human CD28 [5]", "value": 15500}, {"measurement": "S/N Ratio", "setting": "human CD28 [5]", "value": 249}, {"measurement": "% Reduction (of CD86 binding)", "setting": "human CD28 [6]", "value": 91.1, "unit": "%"}, {"measurement": "MFI (of CD86 binding after antibody pre-incubation)", "setting": "human CD28 [6]", "value": 741}]}
{"binder": "exemplary anti-CD28 antibody AB8 (antibody, V domains shown, Mouse hybridoma monoclonal antibody; Conjugated to PE in the staining assays; also called antibody 8; clone 8) VH: EVKLVESGGGLVQPGGSLKLSCAASGFTFSSYTMSWVRQTPEKRLEWVAYISNGGGTTYYPDTVKGRFTISRDNAKNTLYLQMSSLKSEDTAVYYCARHRPYDYDVLDYWGQGTTLTVSS VL: DIVMTQSQKFMSTSVGDRVSITCKASQIVGTDVAWYQQKPGQSPKILIFSASNRYTGVPDRFTGSGSGTDFTLTISNMQSEDLADYFCHQYSRYPYTFGGGTKLEIK", "values": [{"measurement": "Division Index (with anti-CD3 UCHT1)", "setting": "human CD28 [1]", "value": 0.76}, {"measurement": "Expansion Index (with anti-CD3 UCHT1)", "setting": "human CD28 [1]", "value": 3.51}, {"measurement": "Percent Divided (CFSE T cell division, with plate-coated anti-CD3 UCHT1)", "setting": "human CD28 [1]", "value": 40, "unit": "%"}, {"measurement": "Division Index (no anti-CD3)", "setting": "human CD28 [2]", "value": 0.62}, {"measurement": "Expansion Index (no anti-CD3)", "setting": "human CD28 [2]", "value": 2.85}, {"measurement": "Percent Divided (CFSE T cell division, no anti-CD3)", "setting": "human CD28 [2]", "value": 30.7, "unit": "%"}, {"measurement": "S/N on un-fixed cells", "setting": "human CD28 [3]", "value": 30.9}, {"measurement": "S/N on fixed cells", "setting": "human CD28 [4]", "value": 24.6}, {"measurement": "% CD28+ population", "setting": "human CD28 [5]", "value": 65, "unit": "%"}, {"measurement": "MFI CD28+ population", "setting": "human CD28 [5]", "value": 5210}, {"measurement": "S/N Ratio", "setting": "human CD28 [5]", "value": 83.2}, {"measurement": "% Reduction (of CD86 binding)", "setting": "human CD28 [6]", "value": 88.8, "unit": "%"}, {"measurement": "MFI (of CD86 binding after antibody pre-incubation)", "setting": "human CD28 [6]", "value": 925}]}
{"binder": "exemplary anti-CD28 antibody AB1 (antibody, V domains shown, Mouse hybridoma monoclonal antibody; also called antibody 1; clone 1) VH: QVHLQQSATELARPGASVKMSCKASGYTFTSYTMHWVKQRPGQGLEWIGYIDPGSGYSEFNHKFKDKSTLTADKSSSTAYMQLISLTSEDSAVYYCARRQDNSGYDSFDYWGQGTTLTVSS VL: DIQMTQSPASLSVSVGETVTITCRTSENIYSNLAWYQQKQGKSPQLLVYAATNLADGVSSRFSGSGSGIQYSLKINSLQSEDFGSYYCQHFWGIPWTFGGGTKLEIK", "values": [{"measurement": "Division Index (with anti-CD3 UCHT1)", "setting": "human CD28 [1]", "value": 0.8}, {"measurement": "Expansion Index (with anti-CD3 UCHT1)", "setting": "human CD28 [1]", "value": 4.03}, {"measurement": "Percent Divided (CFSE T cell division, with plate-coated anti-CD3 UCHT1)", "setting": "human CD28 [1]", "value": 42, "unit": "%"}, {"measurement": "Division Index (no anti-CD3)", "setting": "human CD28 [2]", "value": 0.0072}, {"measurement": "Expansion Index (no anti-CD3)", "setting": "human CD28 [2]", "value": 1.01}, {"measurement": "Percent Divided (CFSE T cell division, no anti-CD3)", "setting": "human CD28 [2]", "value": 0.58, "unit": "%"}, {"measurement": "S/N on un-fixed cells", "setting": "human CD28 [3]", "value": 89.2}, {"measurement": "S/N on fixed cells", "setting": "human CD28 [4]", "value": 61.6}, {"measurement": "% CD28+ population", "setting": "human CD28 [5]", "value": 64.8, "unit": "%"}, {"measurement": "MFI CD28+ population", "setting": "human CD28 [5]", "value": 12600}, {"measurement": "S/N Ratio", "setting": "human CD28 [5]", "value": 212}, {"measurement": "% Reduction (of CD86 binding)", "setting": "human CD28 [6]", "value": 91.1, "unit": "%"}, {"measurement": "MFI (of CD86 binding after antibody pre-incubation)", "setting": "human CD28 [6]", "value": 736}]}
{"binder": "exemplary anti-CD28 antibody AB2 (antibody, V domains shown, Mouse hybridoma monoclonal antibody; also called antibody 2; clone 2) VH: QVQLQQPGSELMRPGASVKLSCKASGYTFTSYWMHWVKQRHGQGLEWIGNIYPGSGRTIYDEKFKSKATLTVDTSSSTAYMHLSSLTSEDSAVFYCTRSHYGSSFDAMDYWGQGTSVTVSS VL: DIQVNQSPSSLSASLGDTITITCHASQNIYVWLNWYQQKPGNIPKLLIYKASNLHTGVPSRFSGSGSGTGFTLTISSLQPEDIATYYCQQGQSYPWTFGGGTKLEIK", "values": [{"measurement": "Division Index (with anti-CD3 UCHT1)", "setting": "human CD28 [1]", "value": 0.99}, {"measurement": "Expansion Index (with anti-CD3 UCHT1)", "setting": "human CD28 [1]", "value": 4.56}, {"measurement": "Percent Divided (CFSE T cell division, with plate-coated anti-CD3 UCHT1)", "setting": "human CD28 [1]", "value": 44, "unit": "%"}, {"measurement": "Division Index (no anti-CD3)", "setting": "human CD28 [2]", "value": 1.49}, {"measurement": "Expansion Index (no anti-CD3)", "setting": "human CD28 [2]", "value": 6.13}, {"measurement": "Percent Divided (CFSE T cell division, no anti-CD3)", "setting": "human CD28 [2]", "value": 65.4, "unit": "%"}, {"measurement": "S/N on un-fixed cells", "setting": "human CD28 [3]", "value": 89}, {"measurement": "S/N on fixed cells", "setting": "human CD28 [4]", "value": 50.1}, {"measurement": "% CD28+ population", "setting": "human CD28 [5]", "value": 64.2, "unit": "%"}, {"measurement": "MFI CD28+ population", "setting": "human CD28 [5]", "value": 13100}, {"measurement": "S/N Ratio", "setting": "human CD28 [5]", "value": 207}, {"measurement": "% Reduction (of CD86 binding)", "setting": "human CD28 [6]", "value": 91.4, "unit": "%"}, {"measurement": "MFI (of CD86 binding after antibody pre-incubation)", "setting": "human CD28 [6]", "value": 714}]}
